Twelve molecules from patent US8673848 (Novartis, dated 2014) can be followed below.

This assay concerns the target T1, human APJ receptor (hAPJ) (human, UniProt P35414 1-380).
T1 sequence (looked up): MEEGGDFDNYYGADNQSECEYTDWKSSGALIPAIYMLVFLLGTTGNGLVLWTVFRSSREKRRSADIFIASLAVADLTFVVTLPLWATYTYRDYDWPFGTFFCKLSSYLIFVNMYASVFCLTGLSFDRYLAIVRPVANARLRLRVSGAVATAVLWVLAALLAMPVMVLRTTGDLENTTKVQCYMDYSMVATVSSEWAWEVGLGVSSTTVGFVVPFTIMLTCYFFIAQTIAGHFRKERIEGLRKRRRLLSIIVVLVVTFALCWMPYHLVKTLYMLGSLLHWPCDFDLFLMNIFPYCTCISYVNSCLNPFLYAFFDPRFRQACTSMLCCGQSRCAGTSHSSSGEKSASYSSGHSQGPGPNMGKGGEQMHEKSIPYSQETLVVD
The assay is described as follows: cell-based or functional assay.

*1 amine or outer side, *2 acyl side, *3 side chain or, on linkers, in order; H or OH if unused. Bridges are numbered along the chain shown (N, C = ends). [ ]: non-standard residue; d: D form. The star is where a group is joined. ‑S‑CH2‑C(:Z)‑CH2‑S‑ = thioether linker between two Cys sulfurs, S-CH2-C(=Z)-CH2-S, where Z is an oxime formed with (S)-1-(aminooxy)-19-carboxy-2,7,16,21-tetraoxo-9,12-dioxa-3,6,15,20-tetraazaoctatriacontan-38-oic acid (a fatty acid derivative, O=C(O)CCCCCCCCCCCCCCCCC(=O)N[C@@H](CCC(=O)NCCOCCOCC(=O)NCCNC(=O)CON=C(C[*:1])C[*:2])C(=O)O; Myristoyl = CCCCCCCCCCCCCC(=O)*; pGlu = O=C1CC[C@@H](C(=O)O)N1; Nle = CCCC[C@H](N)C(=O)O; AEEA = NCCOCCOCC(=O)O; Aib = CC(C)(N)C(=O)O

B1: Example 65: pE-R-P-R-L-C-H-K-G-P-Nle-C-F-OH with a monosulfide linkage between the 2 cysteines at position 6 and 12 (peptide)
peptide: [pGlu]RPRLCHKGP[Nle]CF-OH
modifications: bridge 6-12; not fully specified (bridges); printed as pE-R-P-R-L-C-H-K-G-P-Nle-C-F-OH
Consider B1, for which the “hAPJ Ca2+ Flux EC50” value turned out to be 1.1 nM. On to [pGlu]RPRLCHKGP[Nle]CF-OH (linker 6-12 via ‑S‑CH2‑C(O)CH2‑S‑), for which the “hAPJ Ca2+ Flux EC50” value is 6.3 nM.

B2: Example 63: pE-R-P-R-L-C-H-K-G-P-Nle-C-NH2 (peptide)
peptide: [pGlu]RPRLCHKGP[Nle]C-NH2
modifications: disulfide 6-12
SMILES: CCCC[C@@H]1NC(=O)[C@@H]2CCCN2C(=O)CNC(=O)[C@H](CCCCN)NC(=O)[C@H](Cc2c[nH]cn2)NC(=O)[C@@H](NC(=O)[C@H](CC(C)C)NC(=O)[C@H](CCCNC(=N)N)NC(=O)[C@@H]2CCCN2C(=O)[C@H](CCCNC(=N)N)NC(=O)[C@@H]2CCC(=O)N2)CSSC[C@@H](C(N)=O)NC1=O
Turning to B2, the “hAPJ Ca2+ Flux EC50” value is 3.18 nM. In the case of [pGlu]RPRLCHKGP[Nle]CF-OH (disulfide 6-12) [Example 8: pE-R-P-R-L-C-H-K-G-P-Nle-C-F-OH] it was 1.04 nM.

B3: Example 9: pE-R-P-R-L-C-Aib-K-G-P-Nle-C-F-OH (peptide)
peptide: [pGlu]RPRLC[Aib]KGP[Nle]CF-OH
modifications: disulfide 6-12
SMILES: CCCC[C@@H]1NC(=O)[C@@H]2CCCN2C(=O)CNC(=O)[C@H](CCCCN)NC(=O)C(C)(C)NC(=O)[C@@H](NC(=O)[C@H](CC(C)C)NC(=O)[C@H](CCCNC(=N)N)NC(=O)[C@@H]2CCCN2C(=O)[C@H](CCCNC(=N)N)NC(=O)[C@@H]2CCC(=O)N2)CSSC[C@@H](C(=O)N[C@@H](Cc2ccccc2)C(=O)O)NC1=O
Regarding B3, the “hAPJ Ca2+ Flux EC50” value came out at 2.16 nM.

B4: Example 61: pE-R-P-R-L-C-H-K(Myristoyl)-G-P-Nle-C-F-OH (peptide)
peptide: [pGlu]RPRLCHK(Myristoyl)GP[Nle]CF-OH
modifications: disulfide 6-12
SMILES: CCCCCCCCCCCCCC(=O)NCCCC[C@@H]1NC(=O)[C@H](Cc2c[nH]cn2)NC(=O)[C@@H](NC(=O)[C@H](CC(C)C)NC(=O)[C@H](CCCNC(=N)N)NC(=O)[C@@H]2CCCN2C(=O)[C@H](CCCNC(=N)N)NC(=O)[C@@H]2CCC(=O)N2)CSSC[C@@H](C(=O)N[C@@H](Cc2ccccc2)C(=O)O)NC(=O)[C@H](CCCC)NC(=O)[C@@H]2CCCN2C(=O)CNC1=O
In the case of B4, the “hAPJ Ca2+ Flux EC50” value was 89.2 nM.

B5: Example 6: pE-R-P-R-L-K-F-K-G-P-Nle-f (peptide)
peptide: [pGlu]RPRLKFKGP[Nle][dF]
modifications: lactam 6-C
SMILES: CCCC[C@@H]1NC(=O)[C@@H]2CCCN2C(=O)CNC(=O)[C@H](CCCCN)NC(=O)[C@H](Cc2ccccc2)NC(=O)[C@@H](NC(=O)[C@H](CC(C)C)NC(=O)[C@H](CCCNC(=N)N)NC(=O)[C@@H]2CCCN2C(=O)[C@H](CCCNC(=N)N)NC(=O)[C@@H]2CCC(=O)N2)CCCCNC(=O)[C@@H](Cc2ccccc2)NC1=O
Take B5: the “hAPJ Ca2+ Flux EC50” value stood at 22 nM.

B6: Example 60: Myristoyl-O2Oc-O2Oc-O2Oc-O2Oc-Q-R-P-R-L-C-H-K-G-P-Nle-C-f-OH (peptide)
peptide: Myristoyl-[AEEA][AEEA][AEEA][AEEA]QRPRLCHKGP[Nle]C[dF]-OH
modifications: disulfide 10-16
SMILES: CCCCCCCCCCCCCC(=O)NCCOCCOCC(=O)NCCOCCOCC(=O)NCCOCCOCC(=O)NCCOCCOCC(=O)N[C@@H](CCC(N)=O)C(=O)N[C@@H](CCCNC(=N)N)C(=O)N1CCC[C@H]1C(=O)N[C@@H](CCCNC(=N)N)C(=O)N[C@@H](CC(C)C)C(=O)N[C@H]1CSSC[C@@H](C(=O)N[C@H](Cc2ccccc2)C(=O)O)NC(=O)[C@H](CCCC)NC(=O)[C@@H]2CCCN2C(=O)CNC(=O)[C@H](CCCCN)NC(=O)[C@H](Cc2c[nH]cn2)NC1=O
Turning to B6, the “hAPJ Ca2+ Flux EC50” value was determined as 8.15 nM.

B7: Example 62: pE-R-P-R-L-C-H-K-G-P-Nle-C-F-NH2 (peptide)
peptide: [pGlu]RPRLCHKGP[Nle]CF-NH2
modifications: disulfide 6-12
SMILES: CCCC[C@@H]1NC(=O)[C@@H]2CCCN2C(=O)CNC(=O)[C@H](CCCCN)NC(=O)[C@H](Cc2c[nH]cn2)NC(=O)[C@@H](NC(=O)[C@H](CC(C)C)NC(=O)[C@H](CCCNC(=N)N)NC(=O)[C@@H]2CCCN2C(=O)[C@H](CCCNC(=N)N)NC(=O)[C@@H]2CCC(=O)N2)CSSC[C@@H](C(=O)N[C@@H](Cc2ccccc2)C(N)=O)NC1=O
B7: the “hAPJ Ca2+ Flux EC50” value was 3.32 nM. In the case of cyclo(QRPRLCFKGP[Nle]CFGG) (disulfide 6-12) [Example 7: Q-R-P-R-L-C-F-K-G-P-Nle-C-F-G-G] it was 90.8 nM.

B8: Example 59: Myristoyl-O2Oc-O2Oc-O2Oc-Q-R-P-R-L-C-H-K-G-P-Nle-C-f-OH (peptide)
peptide: Myristoyl-[AEEA][AEEA][AEEA]QRPRLCHKGP[Nle]C[dF]-OH
modifications: disulfide 9-15
SMILES: CCCCCCCCCCCCCC(=O)NCCOCCOCC(=O)NCCOCCOCC(=O)NCCOCCOCC(=O)N[C@@H](CCC(N)=O)C(=O)N[C@@H](CCCNC(=N)N)C(=O)N1CCC[C@H]1C(=O)N[C@@H](CCCNC(=N)N)C(=O)N[C@@H](CC(C)C)C(=O)N[C@H]1CSSC[C@@H](C(=O)N[C@H](Cc2ccccc2)C(=O)O)NC(=O)[C@H](CCCC)NC(=O)[C@@H]2CCCN2C(=O)CNC(=O)[C@H](CCCCN)NC(=O)[C@H](Cc2c[nH]cn2)NC1=O
Consider B8, for which the “hAPJ Ca2+ Flux EC50” value turned out to be 10 nM.

B9: Example 66: pE-R-P-R-L-C-H-K-G-P-Nle-C-F-OH with a -S-CH2-C(=Z)-CH2-S- linkage between the 2 cysteines at position 6 and 12 (peptide)
peptide: [pGlu]RPRLCHKGP[Nle]CF-OH
modifications: linker 6-12 via ‑S‑CH2‑C(:Z)‑CH2‑S‑; also: Z = oxime with (S)-1-(aminooxy)-19-carboxy-2,7,16,21-tetraoxo-9,12-dioxa-3,6,15,20-tetraazaoctatriacontan-38-oic acid on the linker ketone
Turning to B9, the “hAPJ Ca2+ Flux EC50” value amounted to 589 nM.
